B1: natural human lactoferrin (ligand)
chain: GRRRRSVQWCAVSQPEATKCFQWQRNMRKVRGPPVSCIKRDSPIQCIQAIAENRADAVTLDGGFIYEAGLAPYKLRPVAAEVYGTERQPRTHYYAVAVVKKGGSFQLNELQGLKSCHTGLRRTAGWNVPIGTLRPFLNWTGPPEPIEAAVARFFSASCVPGADKGQFPNLCRLCAGTGENKCAFSSQEPYFSYSGAFKCLRDGAGDVAFIRESTVFEDLSDEAERDEYELLCPDNTRKPVDKFKDCHLARVPSHAVVARSVNGKEDAIWNLLRQAQEKFGKDKSPKFQLFGSPSGQKDLLFKDSAIGFSRVPPRIDSGLYLGSGYFTAIQNLRKSEEEVAARRARVVWCAVGEQELRKCNQWSGLSEGSVTCSSASTTEDCIALVLKGEADAMSLDGGYVYTAGKCGLVPVLAENYKSQQSSDPDPNCVDRPVEGYLAVAVVRRSDTSLTWNSVKGKKSCHTAVDRTAGWNIPMGLLFNQTGSCKFDEYFSQSCAPGSDPRSNLCALCIGDEQGENKCVPNSNERYYGYTGAFRCLAENAGDVAFVKDVTVLQNTDGNNNEAWAKDLKLADFALLCLDGKRKPVTEARSCHLAMAPNHAVVSRMDKVERLKQVLLHQQAKFGRNGSDCPDKFCLFQSETKNLLFNDNTECLARLHGKTTYEKYLGPQYVAGITNLKKCSTSPLLEACEFLRK
B2: iron-saturated human lactoferrin (ligand)
chain: B1 chain
B3: human lysozyme (enzyme)
chain: KVFERCELARTLKRLGMDGYRGISLANWMCLAKWESGYNTRATNYNAGDRSTDYGIFQINSRYWCNDGKTPGAVNACHLSCSALLQDNIADAVACAKRVVRDPQGIRAWVAWRNRCQNRDVRQYVQGCGV

Legend:
human lysozyme = molecular target: B3; experiment: competitive ELISA: unlabelled competitor against 12.5 nM biotinylated hLF on hLZ-coated plates
human transferrin = human transferrin (human, UniProt P02787); experiment: competitive ELISA: hTF as competitor of 12.5 nM biotinylated hLF on hLZ-coated plates
[1] = molecular target: B1; experiment: solid-phase ligand binding ELISA, hLZ-coated plates

IC50 (human lysozyme) [nM] | binding result (human transferrin) | binding result [1] | Binder
11.2 | – | – | B1
15.4 | – | – | B2
– | no binding | binds | B3
